Assay in all cases: SPR
In general terms: SPR reads the build-up and loss of mass on a sensor chip optically.

Assay [1] deals with T1, wild type sorcin (soluble resistance-related calcium binding protein) ( (human or Chinese hamster …, UniProt P05044 1-198)).
T1 sequence (looked up): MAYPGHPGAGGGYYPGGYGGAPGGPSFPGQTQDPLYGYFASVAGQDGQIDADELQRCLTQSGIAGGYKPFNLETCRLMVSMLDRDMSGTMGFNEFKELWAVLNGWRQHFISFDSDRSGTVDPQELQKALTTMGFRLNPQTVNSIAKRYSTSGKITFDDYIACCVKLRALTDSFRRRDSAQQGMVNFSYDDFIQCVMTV

Assay [2] addresses T1, wild type sorcin (soluble …). The source holds these as a separate data set.
Assay [3] has the same target. This is another data set of the same source.
Assay [4] addresses T2, sorcin W105G variant ( (human or Chinese hamster …, UniProt P05044 1-198, W105G)).
T2 sequence (looked up): T1 sequence (looked up) with W105G

Results on 2 molecules are retold here after paper PMC2958309 (Journal of Molecular and Cellular Cardiology, 2010).

Residue numbers refer to the chain shown, from its start. Read-outs that look alike come from different tables or passages of the source.

B1: NCX1 Calcium Binding Domain 1 (CBD1) (domain or fragment, Mus musculus, UniProt P70414 397-539, looked up)
chain: MAENDPVSKIFFEQGTYQCLENCGTVALTIMRRGGDLSTTVFVDFRTEDGTANAASDYEFTEGTVIFKPGETQKEIRVGIIDDDIFEEDENFLVHLSNVRVSSDVSEDGILESNHASSIACLGSPSTATITIFDDDHAGIFTF
Usually koff stands for the rate constant with which the complex falls apart. Usually Kd stands for the concentration at which binding is half-saturated. As usually defined, the kon is the second-order rate constant of association. For B1, the koff in assay [1] came out at 0.9 ± 0.4 s⁻¹. In assay [2], the equilibrium dissociation constant (Kd) is 1200 nM, the koff stood at 0.08 ± 0.1 s⁻¹ and the kon amounted to 70000 M⁻¹ s⁻¹. For the same molecule, in assay [3], the Kd stood at 7000 nM, the koff is 0.27 ± 0.1 s⁻¹ and the kon came out at 40000 M⁻¹ s⁻¹. Besides, in assay [4], the binding result is recorded as “binds”.

B2: NCX1 Calcium Binding Domain 2 (CBD2) (domain or fragment, Mus musculus, UniProt P70414 527-712, looked up)
chain: TIFDDDHAGIFTFEEPVTHVSESIGIMEVKVLRTSGARGNVIIPYKTIEGTARGGGEDFEDTCGEPEFQNDEIVKTISVKVIDDEEYEKNKTFFIEIGEPRLVEMSEKKALLLNELGGFTLTGKEMYGQPIFRKVHARDHPIPSTVITISEEYDDKQPLTSKEEEERRIAEMGRPILGEHTKLEVI
Consider B2, for which the figures for the koff in assay [1], in assay [2] and in assay [3] were 0.6 ± 0.2 s⁻¹, 0.05 ± 0.03 s⁻¹ and 0.24 ± 0.1 s⁻¹, respectively. Moreover, the figures for the dissociation constant (Kd) in assay [2] and in assay [3] were 1000 nM and 3000 nM, respectively. In addition, the values for the kon in assay [2] and in assay [3] were 50000 M⁻¹ s⁻¹ and 80000 M⁻¹ s⁻¹, respectively.
